This note sets out measurements from doi:10.1101/2020.06.17.157982.

Where only a bound is given, the exact number is not on record here.

The target in the test is biotinylated human ACE2 ectodomain, which contains its natural dimerization domain (ACROBiosystems AC2-H82E6) (human) (UniProt Q9BYF1). In words: FACS.
Chain of biotinylated human ACE2 ectodomain, which contains its natural dimerization domain (ACROBiosystems AC2-H82E6) (human) (Q9BYF1 18-740): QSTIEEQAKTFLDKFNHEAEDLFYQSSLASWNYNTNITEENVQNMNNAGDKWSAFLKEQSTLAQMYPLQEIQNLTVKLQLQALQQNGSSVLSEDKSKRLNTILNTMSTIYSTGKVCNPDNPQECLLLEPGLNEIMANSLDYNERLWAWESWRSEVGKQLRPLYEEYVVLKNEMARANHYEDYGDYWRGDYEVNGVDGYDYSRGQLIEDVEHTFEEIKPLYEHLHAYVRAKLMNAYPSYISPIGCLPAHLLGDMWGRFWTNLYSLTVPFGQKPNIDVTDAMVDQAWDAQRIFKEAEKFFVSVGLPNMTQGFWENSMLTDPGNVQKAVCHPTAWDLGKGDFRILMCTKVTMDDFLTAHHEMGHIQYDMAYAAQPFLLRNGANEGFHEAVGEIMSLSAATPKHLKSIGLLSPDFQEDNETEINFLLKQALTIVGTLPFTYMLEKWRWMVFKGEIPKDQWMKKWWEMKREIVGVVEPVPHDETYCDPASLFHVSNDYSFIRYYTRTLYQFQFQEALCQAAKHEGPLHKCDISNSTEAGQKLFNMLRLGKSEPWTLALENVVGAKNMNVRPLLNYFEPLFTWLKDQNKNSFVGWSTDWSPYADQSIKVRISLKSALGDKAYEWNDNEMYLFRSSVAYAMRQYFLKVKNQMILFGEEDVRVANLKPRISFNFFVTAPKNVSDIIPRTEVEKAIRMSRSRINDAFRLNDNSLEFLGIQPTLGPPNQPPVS
Consider WIV1 RBD, yeast-displayed, for which the dissociation constant (Kd) (as a rule, the equilibrium constant for the complex coming apart) came out at 0.017 nM.
Regarding ZC45 RBD, yeast-displayed, the Kd is greater than 1000 nM.
Then ZXC21 RBD, yeast-displayed, with greater than 1000 nM.
